Molecular target: SARS-CoV-2 Spike S1 domain (amino acids 14 to 681), HEK293-produced (SARS-CoV-2, UniProt P0DTC2 14-681)
Assay: far-Western, overlay or dot blot
Conditions: both partners purified

B1: cyanovirin-N (natural protein)
chain: LGKFSQTCYNSAIQGSVLTSTCERTNGGYNTSSIDLNSVIENVDGSLKWQPSNFIETCRNTQLAGSSELAAECKTRAQQFVSTKINLDDHIANIDGTLKYE
notes: also called CV-N
binding result: binds

Source: publication PMC10013841 (Proceedings of the National Academy of Sciences of the …, 2023)
